From PMC3713096 (Molecular cell, 2013)

B1: Cdc20_(1-163) (Cdc20^N) (domain or fragment, human, UniProt Q12834 1-163, looked up)
chain: MAQFAFESDLHSLLQLDAPIPNAPPARWQRKAKEAAGPAPSPMRAANRSHSAGRTPGRTPGKSSSKVQTTPSKPGGDRYIPHRSAAQMEVASFLLSKENQPENSQTPTKKEHQKAWALNLNGFDVEEAKILRLSGKPQNAPEGYQNRLKVLYSQKATPGSSRK
B2: GST-Cdc20^N (domain or fragment, human, UniProt Q12834 1-163, looked up)
chain: B1 chain
B3: GST-Cdc20_(166-499) (GST-Cdc20^C) (domain or fragment, human, UniProt Q12834 166-499, looked up)
chain: RYIPSLPDRILDAPEIRNDYYLNLVDWSSGNVLAVALDNSVYLWSASSGDILQLLQMEQPGEYISSVAWIKEGNYLAVGTSSAEVQLWDVQQQKRLRNMTSHSARVGSLSWNSYILSSGSRSGHIHHHDVRVAEHHVATLSGHSQEVCGLRWAPDGRHLASGGNDNLVNVWPSAPGEGGWVPLQTFTQHQGAVKAVAWCPWQSNVLATGGGTSDRHIRIWNVCSGACLSAVDAHSQVCSILWSPHYKELISGHGFAQNQLVIWKYPTMAKVAELKGHTSRVLSLTMSPDGATVASAAADETLRLWRCFELDPARRREREKASAAKSSLIHQGIR
B4: Cdc20^C (Cdc20_(166-499), free in solution) (domain or fragment, human, UniProt Q12834 166-499, looked up)
chain: B3 chain
B5: BubR1_(1-477) (BubR1^N) (domain or fragment, human, UniProt O60566 1-477, looked up)
chain: MAAVKKEGGALSEAMSLEGDEWELSKENVQPLRQGRIMSTLQGALAQESACNNTLQQQKRAFEYEIRFYTGNDPLDVWDRYISWTEQNYPQGGKESNMSTLLERAVEALQGEKRYYSDPRFLNLWLKLGRLCNEPLDMYSYLHNQGIGVSLAQFYISWAEEYEARENFRKADAIFQEGIQQKAEPLERLQSQHRQFQARVSRQTLLALEKEEEEEVFESSVPQRSTLAELKSKGKKTARAPIIRVGGALKAPSQNRGLQNPFPQQMQNNSRITVFDENADEASTAELSKPTVQPWIAPPMPRAKENELQAGPWNTGRSLEHRPRGNTASLIAVPAVLPSFTPYVEETARQPVMTPCKIEPSINHILSTRKPGKEEGDPLQRVQSHQQASEEKKEKMMYCKEKIYAGVGEFSFEEIRAEVFRKKLKEQREAELLTSAEKRAEMQKQIEEMEKKLKEIQTTQQERTGDQQEETMPTKET

What was measured:
Assay in all cases: pull-down
[1] = target: B3
[2] = target: B4
BubR1_(1-363) = BubR1_(1-363) (human, UniProt O60566 1-363)
GST-BubR1^N = GST-BubR1^N (human, UniProt O60566 1-477)
[3] = target: Cdc20 (full length, Cdc20^FL) (human, UniProt Q12834 1-499)

Binder: B1
binding result [1]: binds

Binder: B2
binding result [2]: binds

Binder: B3
binding result (BubR1_(1-363)): binds

Binder: B4
binding result (GST-BubR1^N): binds

Binder: B5
fold increase of association with Mad2 against without Mad2 [3]: ~6 fold
